Data on 5 molecules can be found in patent publication US20140087995A1 (published 2014).

Numbered stars: 1 amine (or outer) side, 2 acyl side, 3 side chain; on linkers, the order of the positions; unused ones are H or OH. Bridge positions count the residues as written; N and C are the ends. Side chains are listed from the residue outwards. Ends that are not written are not given here. * marks the point of attachment. C20 diacid = O=C(O)CCCCCCCCCCCCCCCCCCC(=O)*; γGlu = O=C(O)[C@H](CCC(=O)[*:2])N[*:1]; AEEA = NCCOCCOCC(=O)O

Test [1] deals with T1, rat amylin receptor (rat calcitonin receptor + rat RAMP 3) (rat, UniProt P32214 25-516; Q9JJ73 23-147).
T1 construct: whole, on cells; also called rAmylin-R; rat amylin 3(a) receptor
T1 sequence (looked up) 1: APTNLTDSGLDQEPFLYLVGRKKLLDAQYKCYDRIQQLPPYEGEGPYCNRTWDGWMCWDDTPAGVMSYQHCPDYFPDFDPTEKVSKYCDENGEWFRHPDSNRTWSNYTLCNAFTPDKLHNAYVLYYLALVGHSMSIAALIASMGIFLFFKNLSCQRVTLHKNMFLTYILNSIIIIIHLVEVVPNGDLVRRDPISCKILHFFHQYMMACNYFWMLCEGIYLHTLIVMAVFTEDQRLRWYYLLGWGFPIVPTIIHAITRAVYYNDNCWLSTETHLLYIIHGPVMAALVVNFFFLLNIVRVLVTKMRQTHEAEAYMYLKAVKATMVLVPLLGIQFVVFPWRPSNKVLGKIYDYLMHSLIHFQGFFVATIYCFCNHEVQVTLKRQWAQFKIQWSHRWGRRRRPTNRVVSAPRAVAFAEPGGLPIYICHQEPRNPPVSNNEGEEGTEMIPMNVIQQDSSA
T1 sequence (looked up) 2: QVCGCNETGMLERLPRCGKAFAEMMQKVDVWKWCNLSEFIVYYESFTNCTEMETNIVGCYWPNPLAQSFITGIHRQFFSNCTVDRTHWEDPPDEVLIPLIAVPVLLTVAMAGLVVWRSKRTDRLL
Description: SPA competition with 125I-rat amylin, membranes of BHK cells with rat calcitonin receptor + rat RAMP3 (Assay VI).

For test [2], the target named is T2, human calcitonin receptor (human, UniProt P30988 25-474).
T2 construct: whole, on cells; also called hCTR; hCT
T2 sequence (looked up): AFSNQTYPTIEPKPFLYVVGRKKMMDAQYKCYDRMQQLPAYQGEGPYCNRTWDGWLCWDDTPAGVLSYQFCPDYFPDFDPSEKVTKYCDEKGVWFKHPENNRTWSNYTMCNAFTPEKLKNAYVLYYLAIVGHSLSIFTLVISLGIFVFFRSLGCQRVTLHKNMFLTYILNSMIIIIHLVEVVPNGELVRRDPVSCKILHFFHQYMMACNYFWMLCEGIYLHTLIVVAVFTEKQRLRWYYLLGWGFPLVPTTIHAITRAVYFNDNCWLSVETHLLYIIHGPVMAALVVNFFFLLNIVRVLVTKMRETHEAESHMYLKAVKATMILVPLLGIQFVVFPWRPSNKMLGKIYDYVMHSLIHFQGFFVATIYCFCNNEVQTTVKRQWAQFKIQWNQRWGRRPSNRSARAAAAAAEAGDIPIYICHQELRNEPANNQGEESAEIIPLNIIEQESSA
Description: ratio of binding IC50s: human calcitonin receptor over human amylin receptor (reference). Summed up:
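Competition binding by SPA uses membrane preparations (35 ng/μL final) in pH 7.4 Hepes buffer with 1 mM CaCl2 and 5 mM MgCl₂. Incubation lasts 120 min at 25° C, and IC₅₀ comes from one-site fitting.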

For test [3], the target named is T3, rat calcitonin receptor (rat, UniProt P32214 25-516).
T3 construct: whole, on cells; also called rCTR; rat calcitonin (a) receptor
T3 sequence (looked up): T1 sequence (looked up) 1
Description: ratio of binding IC50s: rat calcitonin receptor over rat amylin receptor (reference).

The target in test [4] is T3, rat calcitonin receptor. Description: SPA competition with 125I-calcitonin, membranes of BHK cells with rat calcitonin receptor (Assay VIII).

B1: N^ε1-[2-[2-[2-[[(4S)-4-carboxy-4-(19-carboxynonadecanoylamino)butanoyl]amino]ethoxy]ethoxy]acetyl]-[Arg17,Pro21,Pro27,Pro34,His35]-h-amylin (peptide)
peptide: K([AEEA-γGlu-C20 diacid])CNTATCATQRLANFLRHSSPNFGAIPSSTNVGPHTY-NH2
modifications: disulfide 2-7; N-terminus assumed
SMILES: CC[C@H](C)[C@H](NC(=O)[C@H](C)NC(=O)CNC(=O)[C@H](Cc1ccccc1)NC(=O)[C@H](CC(N)=O)NC(=O)[C@@H]1CCCN1C(=O)[C@H](CO)NC(=O)[C@H](CO)NC(=O)[C@H](Cc1c[nH]cn1)NC(=O)[C@H](CCCNC(=N)N)NC(=O)[C@H](CC(C)C)NC(=O)[C@H](Cc1ccccc1)NC(=O)[C@H](CC(N)=O)NC(=O)[C@H](C)NC(=O)[C@H](CC(C)C)NC(=O)[C@H](CCCNC(=N)N)NC(=O)[C@H](CCC(N)=O)NC(=O)[C@@H](NC(=O)[C@H](C)NC(=O)[C@@H]1CSSC[C@H](NC(=O)[C@@H](N)CCCCNC(=O)COCCOCCNC(=O)CC[C@H](NC(=O)CCCCCCCCCCCCCCCCCCC(=O)O)C(=O)O)C(=O)N[C@@H](CC(N)=O)C(=O)N[C@@H]([C@@H](C)O)C(=O)N[C@@H](C)C(=O)N[C@@H]([C@@H](C)O)C(=O)N1)[C@@H](C)O)C(=O)N1CCC[C@H]1C(=O)N[C@@H](CO)C(=O)N[C@@H](CO)C(=O)N[C@H](C(=O)N[C@@H](CC(N)=O)C(=O)N[C@H](C(=O)NCC(=O)N1CCC[C@H]1C(=O)N[C@@H](Cc1c[nH]cn1)C(=O)N[C@H](C(=O)N[C@@H](Cc1ccc(O)cc1)C(N)=O)[C@@H](C)O)C(C)C)[C@@H](C)O
notes: synthetic analogue of human amylin; also called compound 58
The term IC50 denotes the point on the concentration scale where inhibition reaches its midpoint. Consider B1, for which the IC50 in test [1] came out at 0.135 nM; with rat calcitonin receptor [4], 10.3 nM. For the same molecule, the “Ratio hCT/hAmylin binding” value in test [2] was determined as 109. In the test with rat calcitonin receptor [3], the “Ratio rCT/rAmylin binding” value is 76.6.

B2: N^ε1-[2-[2-[2-[[(4S)-4-carboxy-4-(19-carboxynonadecanoylamino)butanoyl]amino]ethoxy]ethoxy]acetyl]-[His14,Arg17,Pro21,Pro27,His34]-h-amylin (peptide)
peptide: K([AEEA-γGlu-C20 diacid])CNTATCATQRLAHFLRHSSPNFGAIPSSTNVGHNTY-NH2
modifications: disulfide 2-7; N-terminus assumed
SMILES: CC[C@H](C)[C@H](NC(=O)[C@H](C)NC(=O)CNC(=O)[C@H](Cc1ccccc1)NC(=O)[C@H](CC(N)=O)NC(=O)[C@@H]1CCCN1C(=O)[C@H](CO)NC(=O)[C@H](CO)NC(=O)[C@H](Cc1c[nH]cn1)NC(=O)[C@H](CCCNC(=N)N)NC(=O)[C@H](CC(C)C)NC(=O)[C@H](Cc1ccccc1)NC(=O)[C@H](Cc1c[nH]cn1)NC(=O)[C@H](C)NC(=O)[C@H](CC(C)C)NC(=O)[C@H](CCCNC(=N)N)NC(=O)[C@H](CCC(N)=O)NC(=O)[C@@H](NC(=O)[C@H](C)NC(=O)[C@@H]1CSSC[C@H](NC(=O)[C@@H](N)CCCCNC(=O)COCCOCCNC(=O)CC[C@H](NC(=O)CCCCCCCCCCCCCCCCCCC(=O)O)C(=O)O)C(=O)N[C@@H](CC(N)=O)C(=O)N[C@@H]([C@@H](C)O)C(=O)N[C@@H](C)C(=O)N[C@@H]([C@@H](C)O)C(=O)N1)[C@@H](C)O)C(=O)N1CCC[C@H]1C(=O)N[C@@H](CO)C(=O)N[C@@H](CO)C(=O)N[C@H](C(=O)N[C@@H](CC(N)=O)C(=O)N[C@H](C(=O)NCC(=O)N[C@@H](Cc1c[nH]cn1)C(=O)N[C@@H](CC(N)=O)C(=O)N[C@H](C(=O)N[C@@H](Cc1ccc(O)cc1)C(N)=O)[C@@H](C)O)C(C)C)[C@@H](C)O
notes: synthetic analogue of human amylin; also called compound 80
For B2, the IC50 was 1.67 nM in test [1] and 60.4 nM with rat calcitonin receptor [4]. For the same molecule, in test [2], the “Ratio hCT/hAmylin binding” value turned out to be 68.1. Moreover, the “Ratio rCT/rAmylin binding” value with rat calcitonin receptor [3] stood at 36.2.

B3: N^ε1-[2-[2-[2-[[(4S)-4-carboxy-4-(19-carboxynonadecanoylamino)butanoyl]amino]ethoxy]ethoxy]acetyl]-[Arg17,Pro21,Pro27,Pro34]-h-amylin (peptide)
peptide: K([AEEA-γGlu-C20 diacid])CNTATCATQRLANFLRHSSPNFGAIPSSTNVGPNTY-NH2
modifications: disulfide 2-7; N-terminus assumed
SMILES: CC[C@H](C)[C@H](NC(=O)[C@H](C)NC(=O)CNC(=O)[C@H](Cc1ccccc1)NC(=O)[C@H](CC(N)=O)NC(=O)[C@@H]1CCCN1C(=O)[C@H](CO)NC(=O)[C@H](CO)NC(=O)[C@H](Cc1c[nH]cn1)NC(=O)[C@H](CCCNC(=N)N)NC(=O)[C@H](CC(C)C)NC(=O)[C@H](Cc1ccccc1)NC(=O)[C@H](CC(N)=O)NC(=O)[C@H](C)NC(=O)[C@H](CC(C)C)NC(=O)[C@H](CCCNC(=N)N)NC(=O)[C@H](CCC(N)=O)NC(=O)[C@@H](NC(=O)[C@H](C)NC(=O)[C@@H]1CSSC[C@H](NC(=O)[C@@H](N)CCCCNC(=O)COCCOCCNC(=O)CC[C@H](NC(=O)CCCCCCCCCCCCCCCCCCC(=O)O)C(=O)O)C(=O)N[C@@H](CC(N)=O)C(=O)N[C@@H]([C@@H](C)O)C(=O)N[C@@H](C)C(=O)N[C@@H]([C@@H](C)O)C(=O)N1)[C@@H](C)O)C(=O)N1CCC[C@H]1C(=O)N[C@@H](CO)C(=O)N[C@@H](CO)C(=O)N[C@H](C(=O)N[C@@H](CC(N)=O)C(=O)N[C@H](C(=O)NCC(=O)N1CCC[C@H]1C(=O)N[C@@H](CC(N)=O)C(=O)N[C@H](C(=O)N[C@@H](Cc1ccc(O)cc1)C(N)=O)[C@@H](C)O)C(C)C)[C@@H](C)O
notes: synthetic analogue of human amylin; also called compound 50
B3: the IC50 in test [1] was 0.069 nM; in the test with rat calcitonin receptor [4] it was 5.63 nM. Further, the “Ratio hCT/hAmylin binding” value in test [2] is 36. For the same molecule, the “Ratio rCT/rAmylin binding” value in the test with rat calcitonin receptor [3] amounted to 81.7.

B4: N^ε1-[2-[2-[2-[[(4S)-4-carboxy-4-(19-carboxynonadecanoylamino)butanoyl]amino]ethoxy]ethoxy]acetyl]-[Gly14,Arg17,Pro21,Pro27,Pro31]-h-amylin (peptide)
peptide: K([AEEA-γGlu-C20 diacid])CNTATCATQRLAGFLRHSSPNFGAIPSSTPVGSNTY-NH2
modifications: disulfide 2-7; N-terminus assumed
SMILES: CC[C@H](C)[C@H](NC(=O)[C@H](C)NC(=O)CNC(=O)[C@H](Cc1ccccc1)NC(=O)[C@H](CC(N)=O)NC(=O)[C@@H]1CCCN1C(=O)[C@H](CO)NC(=O)[C@H](CO)NC(=O)[C@H](Cc1c[nH]cn1)NC(=O)[C@H](CCCNC(=N)N)NC(=O)[C@H](CC(C)C)NC(=O)[C@H](Cc1ccccc1)NC(=O)CNC(=O)[C@H](C)NC(=O)[C@H](CC(C)C)NC(=O)[C@H](CCCNC(=N)N)NC(=O)[C@H](CCC(N)=O)NC(=O)[C@@H](NC(=O)[C@H](C)NC(=O)[C@@H]1CSSC[C@H](NC(=O)[C@@H](N)CCCCNC(=O)COCCOCCNC(=O)CC[C@H](NC(=O)CCCCCCCCCCCCCCCCCCC(=O)O)C(=O)O)C(=O)N[C@@H](CC(N)=O)C(=O)N[C@@H]([C@@H](C)O)C(=O)N[C@@H](C)C(=O)N[C@@H]([C@@H](C)O)C(=O)N1)[C@@H](C)O)C(=O)N1CCC[C@H]1C(=O)N[C@@H](CO)C(=O)N[C@@H](CO)C(=O)N[C@H](C(=O)N1CCC[C@H]1C(=O)N[C@H](C(=O)NCC(=O)N[C@@H](CO)C(=O)N[C@@H](CC(N)=O)C(=O)N[C@H](C(=O)N[C@@H](Cc1ccc(O)cc1)C(N)=O)[C@@H](C)O)C(C)C)[C@@H](C)O
notes: synthetic analogue of human amylin; also called compound 71
Consider B4, for which the IC50 in test [1] was 0.276 nM; with rat calcitonin receptor [4], 44.8 nM. Moreover, the “Ratio hCT/hAmylin binding” value in test [2] was 32. For the same molecule, the “Ratio rCT/rAmylin binding” value in the test with rat calcitonin receptor [3] turned out to be 162.

B5: N^ε1-[2-[2-[2-[[(4S)-4-carboxy-4-(19-carboxynonadecanoylamino)butanoyl]amino]ethoxy]ethoxy]acetyl]-[His14,Arg17,Pro21,Pro27,Arg34]-h-amylin (peptide)
peptide: K([AEEA-γGlu-C20 diacid])CNTATCATQRLAHFLRHSSPNFGAIPSSTNVGRNTY-NH2
modifications: disulfide 2-7; N-terminus assumed
SMILES: CC[C@H](C)[C@H](NC(=O)[C@H](C)NC(=O)CNC(=O)[C@H](Cc1ccccc1)NC(=O)[C@H](CC(N)=O)NC(=O)[C@@H]1CCCN1C(=O)[C@H](CO)NC(=O)[C@H](CO)NC(=O)[C@H](Cc1c[nH]cn1)NC(=O)[C@H](CCCNC(=N)N)NC(=O)[C@H](CC(C)C)NC(=O)[C@H](Cc1ccccc1)NC(=O)[C@H](Cc1c[nH]cn1)NC(=O)[C@H](C)NC(=O)[C@H](CC(C)C)NC(=O)[C@H](CCCNC(=N)N)NC(=O)[C@H](CCC(N)=O)NC(=O)[C@@H](NC(=O)[C@H](C)NC(=O)[C@@H]1CSSC[C@H](NC(=O)[C@@H](N)CCCCNC(=O)COCCOCCNC(=O)CC[C@H](NC(=O)CCCCCCCCCCCCCCCCCCC(=O)O)C(=O)O)C(=O)N[C@@H](CC(N)=O)C(=O)N[C@@H]([C@@H](C)O)C(=O)N[C@@H](C)C(=O)N[C@@H]([C@@H](C)O)C(=O)N1)[C@@H](C)O)C(=O)N1CCC[C@H]1C(=O)N[C@@H](CO)C(=O)N[C@@H](CO)C(=O)N[C@H](C(=O)N[C@@H](CC(N)=O)C(=O)N[C@H](C(=O)NCC(=O)N[C@@H](CCCNC(=N)N)C(=O)N[C@@H](CC(N)=O)C(=O)N[C@H](C(=O)N[C@@H](Cc1ccc(O)cc1)C(N)=O)[C@@H](C)O)C(C)C)[C@@H](C)O
notes: synthetic analogue of human amylin; also called compound 84
Take B5: the IC50 was 5.05 nM in test [1] and 477 nM with rat calcitonin receptor [4]. For the same molecule, the “Ratio hCT/hAmylin binding” value in test [2] worked out at 120. Besides, the “Ratio rCT/rAmylin binding” value with rat calcitonin receptor [3] amounted to 94.3.
